Measurements taken from PMC8036708.
pKd: −log10 of the molar value.

Key:
[1] = biological target: adenovirus terminal protein-thioredoxin fusion protein (TP–Trx), bacterially expressed (adenovirus (serotype not given))
[2] = biological target: adenovirus terminal protein-thioredoxin fusion protein (TP–Trx), bacterially expressed (adenovirus (serotype not given)); assay: AlphaScreen or HTRF; 30 nM TP–Trx (or Trx tag alone) on nickel NTA donor beads, serial dilutions of GST-tagged importins or GST control on GST acceptor beads; 0.5% BSA added, dilutions in PBS, room temperature in the dark; one-phase association fit

In the case of “importin β1 (Imp β1), GST-tagged (from UniProt P70168 1-876) (natural protein)”, the Nf/Cf of TP–Trx–AF594 microinjected into HeLa cells incubated with importazole (40 µM), a selective Imp β inhibitor; 1.62 with DMSO [1] was 1.04 and the pKd [2] was 7.68.
